{"source": "patent US9618524B2", "about": "“Method, composition, isolation and identification of a plaque particle and related biomarker” (Plaxgen Inc., priority 2012, dated 2017)", "molecules": {"B1": {"name": "Histidine-rich glycoprotein (protein)", "chain": "VSPTDCSAVEPEAEKALDLINKRRRDGYLFQLLRIADAHLDRVENTTVYYLVLDVQESDCSVLSRKYWNDCEPPDSRRPSEIVIGQCKVIATRHSHESQDLRVIDFNCTTSSVSSALANTKDSPVLIDFFEDTERYRKQANKALEKYKEENDDFASFRVDRIERVARVRGGEGTGYFVDFSVRNCPRHHFPRHPNVFGFCRADLFYDVEALDLESPKNLVINCEVFDPQEHENINGVPPHLGHPFHWGGHERSSTTKPPFKPHGSRDHHHPHKPHEHGPPPPPDERDHSHGPPLPQGPPPLLPMSCSSCQHATFGTNGAQRHSHNNNSSDLHPHKHHSHEQHPHGHHPHAHHPHEHDTHRQHPHGHHPHGHHPHGHHPHGHHPHGHHPHCHDFQDYGPCDPPPHNQGHCCHGHGPPPGHLRRRGPGKGPRPFHCRQIGSVYRLPPLRKGEVLPLPEANFPSFPLPHHKHPLKPDNQPFPQSVSESCPGKFKSGFPQVSMFFTHTFPK"}, "B2": {"name": "Inter-alpha-trypsin inhibitor heavy chain H1 (protein)", "chain": "SKSSEKRQAVDTAVDGVFIRSLKVNCKVTSRFAHYVVTSQVVNTANEAREVAFDLEIPKTAFISDFAVTADGNAFIGDIKDKVTAWKQYRKAAISGENAGLVRASGRTMEQFTIHLTVNPQSKVTFQLTYEEVLKRNHMQYEIVIKVKPKQLVHHFEIDVDIFEPQGISKLDAQASFLPKELAAQTIKKSFSGKKGHVLFRPTVSQQQSCPTCSTSLLNGHFKVTYDVSRDKICDLLVANNHFAHFFAPQNLTNMNKNVVFVIDISGSMRGQKVKQTKEALLKILGDMQPGDYFDLVLFGTRVQSWKGSLVQASEANLQAAQDFVRGFSLDEATNLNGGLLRGIEILNQVQESLPELSNHASILIMLTDGDPTEGVTDRSQILKNVRNAIRGRFPLYNLGFGHNVDFNFLEVMSMENNGRAQRIYEDHDATQQLQGFYSQVAKPLLVDVDLQYPQDAVLALTQNHHKQYYEGSEIVVAGRIADNKQSSFKADVQAHGEGQEFSITCLVDEEEMKKLLRERGHMLENHVERLWAYLTIQELLAKRMKVDREERANLSSQALQMSLDYGFVTPLTSMSIRGMADQDGLKPTIDKPSEDSPPLEMLGPRRTFVLSALQPSPTHSSSNTQRLPDRVTGVDTD"}}, "test_in_all_cases": "Mass spectroscopy proteomics, semi-quantitative binding affinity of serum proteins (plaqueproteome, Table 2)", "conditions_in_all_cases": "higher number = stronger affinity", "key": {"[1]": {"target": "T1, alpha-synuclein plaque particles (Homo sapiens, UniProt P37840)", "T1 construct": "140 amino acids polypeptide", "summary_of_the_method": "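AD-subject plasma or serum (800 μL of 50%) mixed with 30 μg preformed alpha-synuclein aggregates for 1 h at 37 °C; Thioflavin S-positive particles isolated by flow sorting. After reduction, acrylamide alkylation and overnight tryptic digestion, serum proteins identified by MS/MS with Sequest and Scaffold.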"}, "[2]": {"system": "Low density cholesterol (Chl small) plaque particles", "parameters": "species or system human", "summary_of_the_method": "(§1)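 Atherosclerotic plasma/serum (50% in PBS) + 30 μg cholesterol aggregates, 1 hr 37° C; FACS gates split low- vs high-density particles. Acetone precipitation, urea/ProteaseMAX, acrylamide alkylation, overnight Trypsin/Lys C at 37° C; Sequest search, Scaffold/Protein Prophet validation.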"}, "[3]": {"system": "High Density cholesterol (Chl Large) plaque particles", "parameters": "species or system human", "summary_of_the_method": "as §1"}, "Tau plaque particles": {"system": "Tau plaque particles", "parameters": "species or system human", "summary_of_the_method": "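Synthetic Tau-74 and Tau-275 peptides (1 mg/mL PBS, 37° C, 2 h) aggregated; 30 μg aggregates incubated with 50% serum/plasma 1 h at 37° C, stained with Thioflavin S, and plaque particles sorted by flow cytometry. Bound proteins trypsin-digested and identified by MS/MS against human UniProt.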"}, "[4]": {"target": "T2, Abeta-42 plaque particles (Homo sapiens, UniProt P05067)", "T2 construct": "Abeta 1-42", "summary_of_the_method": "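AD patient serum or plasma (50% in PBS) was incubated with Abeta-42 aggregates (30 μg) for 1 h at 37 °C, then stained with Thioflavin S for 30 min. Labeled particles were FACS-sorted, trypsin/Lys-C digested overnight and analyzed by MS/MS. Sequest searched human UniProt; Scaffold/Protein Prophet validated the identifications.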"}}}
{"molecule": "B1", "values": [{"measurement": "Semi-quantitative analysis of proteins binding to different plaque particles: Synuclein", "setting": "[1]", "value": 9}, {"measurement": "Semi-quantitative analysis of proteins binding to different plaque particles: Chl small", "setting": "[2]", "value": 9}, {"measurement": "Semi-quantitative analysis of proteins binding to different plaque particles: Chl Large", "setting": "[3]", "value": 10}, {"measurement": "Semi-quantitative analysis of proteins binding to different plaque particles: Tau", "setting": "Tau plaque particles", "value": 12}, {"measurement": "Semi-quantitative analysis of proteins binding to different plaque particles: Abeta-42", "setting": "[4]", "value": 7}]}
{"molecule": "B2", "values": [{"measurement": "Semi-quantitative analysis of proteins binding to different plaque particles: Synuclein", "setting": "[1]", "value": 10}, {"measurement": "Semi-quantitative analysis of proteins binding to different plaque particles: Chl small", "setting": "[2]", "value": 7}, {"measurement": "Semi-quantitative analysis of proteins binding to different plaque particles: Chl Large", "setting": "[3]", "value": 11}, {"measurement": "Semi-quantitative analysis of proteins binding to different plaque particles: Tau", "setting": "Tau plaque particles", "value": 18}, {"measurement": "Semi-quantitative analysis of proteins binding to different plaque particles: Abeta-42", "setting": "[4]", "value": 7}]}
